{"source": "patent US11091795B2", "about": "“Compositions and methods for diagnosing and treating arrhythmias” (Arizona Board of Regents on Behalf of the University of …, priority 2016, dated 2021)", "key": {"[1]": {"tested_on": "patients with sickle cell disease", "details": "cited from earlier work"}, "[2]": {"tested_on": "PBMCs isolated and cultured from patients with sickle cell disease", "test": "Heme administration in vitro to PBMCs from sickle cell disease patients", "type": "cell-based, human", "details": "heme 100 uM, 16 h", "description": "IL-18, associated with prolonged QTc and mortality, is induced by heme in PBMCs."}, "sickle mice": {"tested_on": "sickle mice", "details": "cited from earlier work"}, "[3]": {"tested_on": "adults with moderate to severe sickle cell disease", "details": "cited from earlier work"}, "IL-18": {"molecular_target": "T1, IL-18 (Mus musculus, UniProt P70380)", "T1 construct": "endogenous in cells; host or cells: sickle mice, in vivo (circulating and cardiac IL-18)", "T1 sequence (P70380 36-192)": "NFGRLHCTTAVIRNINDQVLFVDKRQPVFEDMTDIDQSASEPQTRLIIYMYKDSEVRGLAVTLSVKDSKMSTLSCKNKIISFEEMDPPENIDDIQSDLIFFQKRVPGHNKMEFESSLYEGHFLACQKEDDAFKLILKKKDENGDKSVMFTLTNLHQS", "test": "Chronic (sustained) inhibition of IL-18 with IL-18bp in sickle mice", "type": "in vivo", "details": "for myocardial fibrosis (Picrosirius Red staining): chronic/sustained (3 weeks) IL-18 inhibition; for diastolic function (change in E/E′, LV filling pressures, on echocardiography): chronic/sustained IL-18 inhibition", "procedure": "Based on the association of IL-18 with myocardial fibrosis and diastolic dysfunction, the functional role of IL-18 in the development of myocardial fibrosis and diastolic dysfunction was tested. […] The mechanisms of how IL-18 mediates sickle cardiomyopathy with prolonged repolarization, diastolic dysfunction, and myocardial fibrosis are unclear. Given the absence of significant IL-18 effect on WT mice and the vulnerability of sickle mice, microarray transcript profiling in murine LV tissue between the two mice was performed. A total of 1611 probes (812 annotated genes) were differentially expressed between sickle and WT mice (P≤0.05). […] Additionally, RT-PCR and western blot reveal sickle mice have reduced myocardial KCND2 and KCND3 gene expression levels (FIG. 6B) consistent with increased APD.\nIt is contemplated that IL-18/IL-18R signaling implicates Nox4 function in sickle heart arrhythmic response. In an acute setting, it is contemplated that IL-18-mediated Nox4 activation downregulates KCND2/KCND3 expression and associated Ito activity which prolongs APD promoting VT; in a chronic setting, it is contemplated that IL-18 induces Nox4-mediated myocardial apoptosis and subsequent fibrosis resulting in pathologic electrophysiological remodeling enhancing VT vulnerability. Briefly, myocardial action potentials reflect the sequential activation and inactivation of inward depolarizing (Na^+, Ca^2+) and outward repolarizing (K^+) current-carrying ion channels. The K^+ channel function determines membrane potential and refractoriness of the myocardium. […] These observations are coupled with increased nitrotyrosine (ROS marker) levels and p38 MAPK activation (within 5 mins and sustained for 45 mins) in vivo. Reduced Ito is also associated with IL-18-induced prolonged APD, promoting early after depolarizations (EADs) and reentry formation in sickle cell hearts. Several reports have shown direct Nox4 interactions with IL-18R as well as Nox4-medaited p38 MAPK activation in cardiomyocytes resulting in reduced KCND2/KCND3 mRNA expression (and Ito current) (Li et al., 2012. J Mol Cell Cardiol 52:971-977; Zhou et al., 2008. J Mol Cell Cardiol 45:832-838; Zhou et al., 2006. Circ Res 98:1040-1047). Single cell voltage clamp and organ level optical mapping is used to evaluate the downstream effects of IL-18 and Nox4. […] Based on these acute and chronic data, a mutant mouse with cardiac-specific Nox4 genetic depletion in a sickle cell mouse background is generated to functionally validate the role of cardiac Nox4 in sickle cell cardiomyopathy and inducible VT."}, "[4]": {"tested_on": "cardiac Nox4, p38, nitrotyrosine in sickle mice", "test": "Acute IL-18 administration in vivo, cardiac Nox4/p38/nitrotyrosine", "design": "species or system mouse", "details": "within 5 minutes of IL-18 administration to sickle mice (5 ug/kg)", "description": "Nitrotyrosine levels are considered a stable byproduct of the presence of peroxynitrite (ROS)."}, "WT mice hearts": {"tested_on": "WT mice hearts", "test": "Optical mapping of ex vivo perfused hearts with exogenous IL-18 in the perfusate (WT)", "design": "species or system mouse", "details": "IL-18 via the perfusate (20 ng/min)", "description": "(§1) Optical mapping: WT and sickle male mice (12-16 weeks) hearts underwent optical mapping. The optical apparatus has been previously described (Rutledge et al., 2014; supra). The values are presented as the mean±standard deviation. Student t test was used and a P value of <0.05 was considered statistically significant. Sample […] and activation maps with BCL pacing were made for both the control and sickle cell hearts.\n(§2) To establish cause and effect, acute effects of IL-18 on the myocardial electrical phenotype were evaluated further in sickle mice. […] Longer perfusion of IL-18 led to the development of multiple PVCs and short-lived VTs (n=4/4 hearts, FIG. 5E)."}, "sickle mice hearts": {"tested_on": "sickle mice hearts", "test": "Optical mapping of ex vivo perfused hearts with exogenous IL-18 in the perfusate", "design": "species or system mouse", "description": "as §1, §2"}, "[5]": {"tested_on": "transient outward K+ current (Ito) in sickle mouse cardiomyocytes", "test": "Voltage clamp (patch clamp) of Ito in isolated cardiomyocytes", "type": "cell-based", "procedure": "IL-18 reduces Ito in isolated sickle cardiomyocytes. Voltage clamp experiments were performed on fresh cardiomyocytes isolated from a sickle mouse exposed to IL-18 (FIG. 10).\nPatch clamp protocol of Ito: Cardiomyocytes were isolated by standard enzymatic techniques and patch-clamp recordings of Ito were performed with an Axopatch-200B amplifier (Molecular Devices, Sunnyvale, Calif.) as described previously (El Gebeily et al., Pharmacol. 2010 Mar. 10; 629(1-3):96-103). Bath solution was Tyrode solution (mmol/L): 140 NaCl; 5.4 KCl; 1.8 CaCl2; 1 MgCl2; 0.33, Na2HPO4; 10 HEPES, 5.5 glucose (pH adjusted to 7.4 with NaOH). Pipette solution is (mmol/L): 110 K^+-aspartate, 20 KCl, 8 NaCl, 1 MgCl2, 1 CaCk2, 10 BAPTA, 4 K2ATP and 10 HEPES (pH adjusted to 7.2 KOH). Whole-cell voltage-clamp recordings were made using the ruptured patch-clamp technique with a patch-clamp amplifier, Axopatch 200 B (Axon Instruments, Foster City, USA). Pipettes resistances was ˜2 MΩ when filled with pipette solution. Series resistance in the whole-cell mode was compensated. Voltage-clamp currents were low-pass filtered at 1 kHz and digitized at 2 kHz. The total K+ current (Ipeak) was constructed from the current elicited by a series of 5 s test potentials at 10 mV increment from −110 mV to +50 mV from a holding potential of −80 mV at a frequency rate of 0.1 Hz. […] The data were recorded using pClamp 10.6 and analyzed with Clampfit (Axon Instruments, Foster City, USA). Current amplitudes were normalized to the cell capacitance and expressed as pA/pF. All experiments were carried out at room temperature (20-22° C.)."}, "[6]": {"details": "short-term administration, tumor necrosis factor-α-induced vaso-occlusion model"}, "[7]": {"details": "sustained (3 weeks) IL-18 inhibition"}, "[8]": {"details": "IL-18 via the perfusate (20 ng/min), sickle mice hearts"}, "[9]": {"details": "sickle mouse cardiomyocytes in the presence of IL-18"}}, "note": "“Also recorded” adds a separate entry of the source.", "data": [{"molecule": "Nc1ncn([C@H]2C[C@H](O)[C@@H](CO)O2)c(=O)n1", "note": "[decitabine, 5-Aza-2′-deoxycytidine]", "values": [{"measurement": "sickle cell patients responding with an increase in HbF levels", "setting": "[1]; including patients who had failed to respond to hydroxyurea", "value": 100, "unit": "%"}, {"measurement": "dose-limiting toxicity", "setting": "[1]; sickle cell patients", "value": "reversible neutropenia"}, {"measurement": "increase in total hemoglobin levels", "setting": "[1]; sickle cell patients", "value": 2, "unit": "g/dL"}, {"measurement": "reticulocyte counts", "setting": "[1]; sickle cell patients", "value": "decreased"}]}, {"molecule": "C=CC1=C(C)c2cc3[n-]c(cc4[n-]c(cc5nc(cc1n2)C(C)=C5C=C)c(C)c4CCC(=O)O)c(CCC(=O)O)c3C.[Fe+2]", "note": "[heme]", "values": [{"measurement": "IL-18 protein expression", "setting": "[2]", "value": "induced IL-18 protein expression"}, {"measurement": "IL-18 protein expression", "setting": "[2]; listed as Heme", "value": "induces IL-18 protein expression"}]}, {"molecule": "NC(=O)NO", "note": "[hydroxyurea]", "values": [{"measurement": "hemolytic anemia at baseline", "setting": "sickle mice; long-term administration in sickle mice", "value": "does not improve"}, {"measurement": "animal survival", "setting": "sickle mice; [6]", "value": "prolonged animal survival"}, {"measurement": "leukocyte recruitment to the microvasculature", "setting": "sickle mice; [6]", "value": "significantly altered"}, {"measurement": "frequency of painful crises, episodes of acute chest syndrome, transfusion requirements and hospitalizations", "setting": "[3]; large multicenter study", "value": "marked decrease"}, {"measurement": "survival", "setting": "[3]; patients", "value": "improved survival"}]}, {"molecule": "IL-18bp: naturally occurring protein that binds to IL-18 and prevents it from activating its receptor (protein, UniProt Q9Z0M9 29-193, looked up) Interleukin-18-binding protein: TSAPQTTATVLTGSSKDPCSSWSPAVPTKQYPALDVIWPEKEVPLNGTLTLSCTACSRFPYFSILYWLGNGSFIEHLPGRLKEGHTSREHRNTSTWLHRALVLEELSPTLRSTNFSCLFVDPGQVAQYHIILAQLWDGLKTAPSPSQETLSSHSPVSRSAGPGVA", "values": [{"measurement": "myocardial fibrosis (Picrosirius Red staining)", "setting": "IL-18", "value": "reduced"}, {"measurement": "myocardial fibrosis (Picrosirius Red staining)", "setting": "IL-18; listed as IL-18 bp", "value": "reduced myocardial fibrosis"}, {"measurement": "diastolic function (change in E/E′, LV filling pressures, on echocardiography)", "setting": "IL-18", "value": "improved cardiac function"}, {"measurement": "diastolic function (change in E/E′, LV filling pressures, on echocardiography)", "setting": "IL-18; listed as IL-18 bp", "value": "improved"}, {"measurement": "cardiac IL-18R (β subunit) and Nox4 expression", "setting": "IL-18; [7]", "value": "reduced cardiac Nox4 and IL-18R expression levels; also recorded: reduced cardiac IL-18R (β subunit) and Nox4 expression"}, {"measurement": "myocardial apoptosis", "setting": "IL-18; [7]", "value": "reduced myocardial apoptosis"}]}, {"molecule": "IL-18: exogenous IL-18 cytokine administered to mouse hearts, mice or cardiomyocytes (protein, UniProt P70380 36-192, looked up) Interleukin-18: NFGRLHCTTAVIRNINDQVLFVDKRQPVFEDMTDIDQSASEPQTRLIIYMYKDSEVRGLAVTLSVKDSKMSTLSCKNKIISFEEMDPPENIDDIQSDLIFFQKRVPGHNKMEFESSLYEGHFLACQKEDDAFKLILKKKDENGDKSVMFTLTNLHQS", "values": [{"measurement": "cardiac Nox4, p38 activation and nitrotyrosine levels", "setting": "[4]", "value": "increases Nox4 levels; also recorded: acutely induces; also recorded: activated"}, {"measurement": "changes in APD, CV and rise time", "setting": "WT mice hearts", "value": "no significant changes"}, {"measurement": "action potential duration (APD)", "setting": "sickle mice hearts; [8]", "value": "prolonged APD; also recorded: APD prolongation"}, {"measurement": "conduction velocity (CV), transverse and longitudinal", "setting": "sickle mice hearts; [8]", "value": "reduced trends in CV; also recorded: Trends in slowing"}, {"measurement": "rise time of action potentials", "setting": "sickle mice hearts; [8]", "value": "Increased rise time"}, {"measurement": "electrical effects after 20 minutes of IL-18 administration", "setting": "sickle mice hearts; after 20 minutes of perfusion", "value": "APD prolongation, atrioventricular block, and a slowed heart rate"}, {"measurement": "development of multiple PVCs and short-lived VTs", "setting": "sickle mice hearts; longer perfusion of IL-18, sickle hearts", "value": "4/4"}, {"measurement": "reduction of Ito", "setting": "[5]; in 10 minutes, fresh cardiomyocytes isolated from a sickle mouse", "value": 47, "unit": "% reduction"}, {"measurement": "peak Ito", "setting": "[5]; sickle group, IL-18 25 ng/mL, at 50 mV", "value": "3.1±0.8", "unit": "pA/pF"}, {"measurement": "Ito (in words)", "setting": "[5]; [9]", "value": "reduce Ito current; also recorded: further reduced"}, {"measurement": "fast inactivating Ito", "setting": "[5]; [9]", "value": "mostly abolished"}]}]}
